Consider 1 molecule from paper PMC4364404.

This data set addresses T1, NgTet1 (Naegleria gruberi, UniProt D2W6T1 1-321).
T1 sequence: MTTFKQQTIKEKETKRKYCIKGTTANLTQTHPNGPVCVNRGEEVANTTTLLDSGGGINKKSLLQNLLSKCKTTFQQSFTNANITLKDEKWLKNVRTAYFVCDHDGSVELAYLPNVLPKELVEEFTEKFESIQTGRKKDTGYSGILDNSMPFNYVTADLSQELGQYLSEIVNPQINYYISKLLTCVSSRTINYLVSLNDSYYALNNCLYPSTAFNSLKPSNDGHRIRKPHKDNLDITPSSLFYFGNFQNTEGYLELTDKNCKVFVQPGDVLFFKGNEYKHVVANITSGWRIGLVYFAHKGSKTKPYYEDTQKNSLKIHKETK
Put plainly: X-ray crystallography.

B1: 14-bp fully methylated CpG DNA (dsDNA)
DNA 1: TGGAACGCAATTCT
DNA 2: AGAATTGCGTTCCA
modifications: 5mC at position 6 of strand 1 and position 8 of strand 2
Turning to B1, the binding result is reported as “binds”.
